Laboratory results taken from PMC6291932.

Target: recombinant zika virus (ZIKV) non-structural 1 (NS1) protein (Zika virus)
Experiment: SEC; Superdex 200 10/300, elution in 50 mM CAPS pH 11.0; supernatants of NS1 inclusion bodies subjected to 2.4 kbar/0.4 kbar at pH 10.0 to 12.5, with or without Arg

recombinant zika virus (ZIKV) non-structural 1 (NS1) protein (natural protein)
stoichiometry N: 2
